# Laboratory results from article PMC9371921, “Strand annealing and motor driven activities of SMARCAL1 and ZRANB3 are stimulated by RAD51 and the paralog complex” (Nucleic Acids Research, 2022).
# B1: RAD51 paralog complex RAD51B-RAD51C-RAD51D-XRCC2 (BCDX2) (complex, human)
# chain 1: MGSKKLKRVGLSQELCDRLSRHQILTCQDFLCLSPLELMKVTGLSYRGVHELLCMVSRACAPKMQTAYGIKAQRSADFSPAFLSTTLSALDEALHGGVACGSLTEITGPPGCGKTQFCIMMSILATLPTNMGGLEGAVVYIDTESAFSAERLVEIAESRFPRYFNTEEKLLLTSSKVHLYRELTCDEVLQRIESLEEEIISKGIKLVILDSVASVVRKEFDAQLQGNLKERNKFLAREASSLKYLAEEFSIPVILTNQITTHLSGALASQADLVSPADDLSLSEGTSGSSCVIAALGNTWSHSVNTRLILQYLDSERRQILIAKSPLAPFTSFVYTIKEEGLVLQETTFCSVTQAELNWAPEILPPQPPEQLGLQMCHHTQLIF
# chain 2: MRGKTFRFEMQRDLVSFPLSPAVRVKLVSAGFQTAEELLEVKPSELSKEVGISKAEALETLQIIRRECLTNKPRYAGTSESHKKCTALELLEQEHTQGFIITFCSALDDILGGGVPLMKTTEICGAPGVGKTQLCMQLAVDVQIPECFGGVAGEAVFIDTEGSFMVDRVVDLATACIQHLQLIAEKHKGEEHRKALEDFTLDNILSHIYYFRCRDYTELLAQVYLLPDFLSEHSKVRLVIVDGIAFPFRHDLDDLSLRTRLLNGLAQQMISLANNHRLAVILTNQMTTKIDRNQALLVPALGESWGHAATIRLIFHWDRKQRLATLYKSPSQKECTVLFQIKPQGFRDTVVTSACSLQTEGSLSTRKRSRDPEEEL
# chain 3: MGVLRVGLCPGLTEEMIQLLRSHRIKTVVDLVSADLEEVAQKCGLSYKALVALRRVLLAQFSAFPVNGADLYEELKTSTAILSTGIGSLDKLLDAGLYTGEVTEIVGGPGSGKTQVCLCMAANVAHGLQQNVLYVDSNGGLTASRLLQLLQAKTQDEEEQAEALRRIQVVHAFDIFQMLDVLQELRGTVAQQVTGSSGTVKVVVVDSVTAVVSPLLGGQQREGLALMMQLARELKTLARDLGMAVVVTNHITRDRDSGRLKPALGRSWSFVPSTRILLDTIEGAGASGGRRMACLAKSSRQPTGFQEMVDIGTWGTSEQSATLQGDQT
# chain 4: MCSAFHRAESGTELLARLEGRSSLKEIEPNLFADEDSPVHGDILEFHGPEGTGKTEMLYHLTARCILPKSEGGLEVEVLFIDTDYHFDMLRLVTILEHRLSQSSEEIIKYCLGRFFLVYCSSSTHLLLTLYSLESMFCSHPSLCLLILDSLSAFYWIDRVNGGESVNLQESTLRKCSQCLEKLVNDYRLVLFATTQTIMQKASSSSEEPSHASRRLCDVDIDYRPYLCKAWQQLVKHRMFFSKQDDSQSSNQFSLVSRCLKSNSLKKHFFIIGESGVEFC
# notes: human RAD51B, codon-optimized for Sf9, from pFB-FLAG-RAD51Bco-10xHis-RAD51Cco; human RAD51C, codon-optimized for Sf9, from pFB-FLAG-RAD51Bco-10xHis-RAD51Cco; Expressed as a heterotetramer; by mass photometry the preparation was consistent with a dimer of the heterotetramer; also called BCDX2 complex; FLAG-BCDX2 complex; source: Sf9, co-infected with two baculoviruses, purified (Ni-NTA, then …)
# Target: the molecule itself
# Assay: mass photometry; 2 μl (50 nM) protein solution added into 18 μl protein elution buffer; movie recorded for 1 min; Refeyn 2MP mass photometer, NativeMark size marker
protein,measurement,value
B1,stoichiometry N,2
